Experimental data from patent publication US20020164640A1 (IMMUNEX, published 2002).

Target: T1, IRAK (UniProt P51617 1-712, limits assumed)
T1 construct: Overexpressed in HEK293 cells and detected by western blotting with anti-IRAK; No tag is stated; also called IL-1 receptor associated Kinase; IRAK1
Assay: co-immunoprecipitation from transfected HEK293 cells: anti-HA IP, anti-IRAK western blot
Protocol: HEK 293 cells were transfected with a 5 x NF-KB reporter gene plasmid and co-transfected with plasmids encoding MAL-1 of SEQ ID NO:2 or MyD88 and increasing concentrations of IRAK. Luciferase reporter gene activity was measured. HEK293 cells were transfected with HA-MAL-1 and IRAK and the resulting overexpressed proteins were immunoprecipitated using an anti-HA antibody to isolate MAL-1 complexes and interactions were detected by western blotting to detect anti-IRAK. IRAK could not be detected in the anti-HA-MAL immunoprecipitates. HEK293 cells were transfected with AU-1-MyD88 and IRAK and the resulting overexpressed proteins were immunoprecipitated using an anti-AU1 antibody to isolate MyD88 complexes and interactions were detected by western blotting for anti-IRAK. IRAK was detected in the anti-Aul-MyD88 immunoprecipitates.

T1 sequence (P51617 whole entry): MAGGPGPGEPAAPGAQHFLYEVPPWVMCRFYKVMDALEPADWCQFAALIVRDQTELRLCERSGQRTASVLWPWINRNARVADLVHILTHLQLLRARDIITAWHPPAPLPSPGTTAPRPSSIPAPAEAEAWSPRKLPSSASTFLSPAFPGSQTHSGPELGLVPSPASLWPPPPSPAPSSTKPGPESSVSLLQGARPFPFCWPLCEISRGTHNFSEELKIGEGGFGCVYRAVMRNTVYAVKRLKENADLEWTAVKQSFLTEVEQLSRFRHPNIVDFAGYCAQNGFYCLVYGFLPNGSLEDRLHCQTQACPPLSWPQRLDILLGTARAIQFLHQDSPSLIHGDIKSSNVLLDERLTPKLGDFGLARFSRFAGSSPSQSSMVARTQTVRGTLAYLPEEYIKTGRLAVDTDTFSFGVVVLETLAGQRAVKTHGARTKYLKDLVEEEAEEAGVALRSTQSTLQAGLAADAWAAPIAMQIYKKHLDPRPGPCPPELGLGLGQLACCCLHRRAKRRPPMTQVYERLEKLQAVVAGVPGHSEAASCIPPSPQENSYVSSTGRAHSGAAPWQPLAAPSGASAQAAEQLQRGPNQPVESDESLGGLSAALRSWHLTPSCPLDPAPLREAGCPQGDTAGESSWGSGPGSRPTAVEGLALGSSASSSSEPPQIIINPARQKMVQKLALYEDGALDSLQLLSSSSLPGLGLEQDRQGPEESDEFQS

B1: full-length labelled MAL-1 (HA-MAL-1) (other, not shown: small tags and cut ends)
chain: MASSTSLPAPGSRPKKPLGKMADWFRQTLLKKPKKRPNSPESTSSDASQPTSQDNPLPPSLSSVTSPSLPPTHASDSGSSRWSKDYDVCVCHSEEDLVAAQDLVSYLEGSTASLRCFLQLRDATPGGAIVSELCQALSSSHCRVLLITPGFLQDPWCKYQMLQALTEAPGAEGCTIPLLSGLSRAAYPPELRFMYYVDGRGPDGGFRQVKEAVMRCKLLQEGEGERDSATVSDLL
notes: Overexpressed in HEK293 cells; also called tagged MAL-1
  binding result: no binding
